± gives the uncertainty stated by the source.
Experiment: self-splicing fitness, log relative to wild type (ln ratio); higher = more splicing; Tetrahymena group I intron in knt gene, E. coli kanamycin selection, DiMSum; sequences stand for … in CUCUCU…GGAGGGAAAAGUUAUCAGGCAUGCACCUGGUAGCUAGUCUUUAAACCAAUAGAUUGCAUCGGUUUAAAAGGCAAGACCGUCAAAUUGCGGGAAAGGGGUCAACAGCCGUUCAGUACCAAGUCUCAGGGGAAACUUUGAGAUGGCCUUGCAAAGGGUAUGGUAAUAAGCUGACGGACAUGGUCCUAACCACGCAGCCAAGUCCUAAGUCAACAGAUCUUCUGUUGAUAUGGAUGCAGUUCACAGACUAAAUGUCGGUCGGGGAAGAUGUAUUCUUCUCAUAAGAUAUAGUCGGACCUCUCCUUAAUGGGAGCUAGCGGAUGAAGUGAUGCAACACUGGAGCCGCUGGGAACUAAUUUGUAUGCGAAAGUAUAUUGAUUAGUUUUGGAGUACUCGUGGUCG
Outline: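 Colonies from six replicate transformations of E. coli BL21(DE3) were pooled and amplicon-sequenced on an Illumina HiSeq 2500. The library placed an intron with all eight P1ex-region nucleotides randomised inside the knt kanamycin-resistance gene on pET-22b(+), and cells grew overnight at 37°C or 30°C on LB agar with or without 25 μg/mL kanamycin (plus 100 μg/mL carbenicillin, 50 μM IPTG, 0.2% rhamnose). Fitness is the DiMSum error-weighted combination of wild-type-normalised replicate fold changes, kanamycin versus none.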

Row | Sequence | self-splicing fitness (ln) (30 °C) | self-splicing fitness (ln) (37 °C)
1 | AUCAAGCAAUAUUACGUGUC | -3.9 ± 0.15 | -2.6 ± 0.16
2 | AUCAAGCAAUAUUACGUUGC | -3.84 ± 0.18 | -2 ± 0.15
3 | AUCCAGCAAUAUUACGAAUC | -2.04 ± 0.15 | -1.87 ± 0.22
4 | AUCCAGCAAUAUUACGACUU | 0.167 ± 0.074 | 0.32 ± 0.086
5 | AUCCAGCAAUAUUACGAGAU | -3.77 ± 0.2 | -2.22 ± 0.19
6 | AUCCAGCAAUAUUACGAGGU | -3.37 ± 0.23 | -2.65 ± 0.22
7 | AUCCAGCAAUAUUACGAUAC | -2.91 ± 0.23 | -0.914 ± 0.15
8 | AUCCAGCAAUAUUACGAUAG | -2.71 ± 0.25 | -2.84 ± 0.31
9 | AUCCAGCAAUAUUACGAUCC | -1.43 ± 0.21 | -0.865 ± 0.21
10 | AUCCAGCAAUAUUACGCCCU | -0.182 ± 0.15 | -0.00746 ± 0.21
11 | AUCCAGCAAUAUUACGCGGC | -2.86 ± 0.18 | -4.06 ± 0.24
12 | AUCCAGCAAUAUUACGCGUG | -2.3 ± 0.11 | -1.72 ± 0.11
13 | AUCCAGCAAUAUUACGGAAG | -1.1 ± 0.11 | -0.947 ± 0.14
14 | AUCCAGCAAUAUUACGGCCU | -0.115 ± 0.065 | 0.0854 ± 0.081
15 | AUCCAGCAAUAUUACGGGGA | -1.4 ± 0.11 | -1.71 ± 0.14
16 | AUCCAGCAAUAUUACGUACC | -2 ± 0.17 | -0.552 ± 0.32
17 | AUCCAGCAAUAUUACGUACG | -1.7 ± 0.11 | -0.813 ± 0.19
18 | AUCCAGCAAUAUUACGUCAU | -0.725 ± 0.041 | -0.313 ± 0.057
19 | AUCCAGCAAUAUUACGUCGC | -3.25 ± 0.24 | -2.08 ± 0.19
20 | AUCCAGCAAUAUUACGUGAG | -0.052 ± 0.045 | 0.237 ± 0.073
21 | AUCCAGCAAUAUUACGUGGU | -3.14 ± 0.12 | -2.9 ± 0.15
22 | AUCCAGCAAUAUUACGUUCA | -1.02 ± 0.068 | -0.265 ± 0.072
23 | AUCCAGCAAUAUUACGUUUA | -1.81 ± 0.076 | -1.01 ± 0.081
24 | AUCGAGCAAUAUUACGAAAA | -3.6 ± 0.39 | -2.1 ± 0.32
25 | AUCGAGCAAUAUUACGAACA | -2.91 ± 0.24 | -1.27 ± 0.2
26 | AUCGAGCAAUAUUACGAAGU | -2.62 ± 0.18 | -1.49 ± 0.18

Row | Sequence | self-splicing fitness (ln) (30 °C) | self-splicing fitness (ln) (37 °C)
27 | AUCGAGCAAUAUUACGACCU | -0.95 ± 0.092 | -0.344 ± 0.15
28 | AUCGAGCAAUAUUACGAUCC | -2.13 ± 0.46 | –
29 | AUCGAGCAAUAUUACGCAAA | -2.86 ± 0.16 | -2.38 ± 0.26
30 | AUCGAGCAAUAUUACGCAUA | – | -1.54 ± 0.36
31 | AUCGAGCAAUAUUACGCGGU | -2.9 ± 0.27 | -1.4 ± 0.22
32 | AUCGAGCAAUAUUACGCUGG | -2.78 ± 0.21 | -2.96 ± 0.2
33 | AUCGAGCAAUAUUACGCUGU | -2.24 ± 0.18 | -3.35 ± 0.37
34 | AUCGAGCAAUAUUACGGAAC | -2.61 ± 0.31 | -2.07 ± 0.4
35 | AUCGAGCAAUAUUACGGAAU | -3.47 ± 0.21 | -1.79 ± 0.18
36 | AUCGAGCAAUAUUACGGACA | -1.98 ± 0.38 | -1.41 ± 0.42
37 | AUCGAGCAAUAUUACGGCCA | -1.35 ± 0.41 | -1.47 ± 0.37
38 | AUCGAGCAAUAUUACGGCCC | -3.15 ± 0.35 | 1.32 ± 0.32
39 | AUCGAGCAAUAUUACGGCUU | -3.88 ± 0.3 | -2.58 ± 0.29
40 | AUCGAGCAAUAUUACGGGAC | -2.89 ± 0.27 | -1.11 ± 0.19
41 | AUCGAGCAAUAUUACGGGAG | -3.52 ± 0.25 | -2.5 ± 0.29
42 | AUCGAGCAAUAUUACGGGGA | -2.83 ± 0.22 | -1.18 ± 0.15
43 | AUCGAGCAAUAUUACGGUCG | -2.73 ± 0.38 | –
44 | AUCGAGCAAUAUUACGUCAU | -2.35 ± 0.14 | -1.65 ± 0.15
45 | AUCGAGCAAUAUUACGUGGU | -3.23 ± 0.15 | -2.72 ± 0.14
46 | AUCGAGCAAUAUUACGUGUC | -3.76 ± 0.22 | -0.765 ± 0.13
47 | AUCGAGCAAUAUUACGUUAU | -3.5 ± 0.26 | -2.59 ± 0.28
48 | AUCGAGCAAUAUUACGUUCC | -1.89 ± 0.24 | -2.02 ± 0.26
49 | AUCGAGCAAUAUUACGUUUG | -4.29 ± 0.3 | -2.05 ± 0.21
50 | AUCUAGCAAUAUUACGAAGA | -1.45 ± 0.14 | -1.67 ± 0.15
51 | AUCUAGCAAUAUUACGACCA | -0.438 ± 0.12 | -0.302 ± 0.14
52 | AUCUAGCAAUAUUACGACUC | -0.0532 ± 0.28 | –

Row | Sequence | self-splicing fitness (ln) (30 °C) | self-splicing fitness (ln) (37 °C)
53 | AUCUAGCAAUAUUACGAGUC | -4.11 ± 0.36 | -2.19 ± 0.25
54 | AUCUAGCAAUAUUACGAGUU | -2.66 ± 0.16 | -0.737 ± 0.14
55 | AUCUAGCAAUAUUACGAUCA | -1.92 ± 0.14 | -0.116 ± 0.18
56 | AUCUAGCAAUAUUACGAUGC | -1.74 ± 0.13 | -1.33 ± 0.16
57 | AUCUAGCAAUAUUACGCAUG | -1.88 ± 0.13 | -0.806 ± 0.12
58 | AUCUAGCAAUAUUACGCCAG | -2.77 ± 0.26 | -2.17 ± 0.25
59 | AUCUAGCAAUAUUACGCGAA | -2 ± 0.24 | -0.373 ± 0.14
60 | AUCUAGCAAUAUUACGCGCC | -0.659 ± 0.17 | -0.398 ± 0.16
61 | AUCUAGCAAUAUUACGCUUA | -1.44 ± 0.1 | -0.971 ± 0.096
62 | AUCUAGCAAUAUUACGGAAG | -1.99 ± 0.12 | -0.947 ± 0.15
63 | AUCUAGCAAUAUUACGGCAC | -1.5 ± 0.13 | -0.819 ± 0.17
64 | AUCUAGCAAUAUUACGGUGA | -1.75 ± 0.11 | -0.608 ± 0.13
65 | AUCUAGCAAUAUUACGGUUG | -2.66 ± 0.15 | -2.45 ± 0.19
66 | AUCUAGCAAUAUUACGUGAA | -2.52 ± 0.12 | -0.861 ± 0.12
67 | AUCUAGCAAUAUUACGUGCA | -0.394 ± 0.15 | -0.423 ± 0.18
68 | AUCUAGCAAUAUUACGUGGA | -2.71 ± 0.24 | -2.91 ± 0.26
69 | AUCUAGCAAUAUUACGUGUU | -2.71 ± 0.17 | -2.54 ± 0.17
70 | AUCUAGCAAUAUUACGUUAG | -3.26 ± 0.19 | -2.67 ± 0.24
71 | AUCUAGCAAUAUUACGUUUC | -2.64 ± 0.35 | -2.9 ± 0.47
72 | AUGAAGCAAUAUUACGAAAC | -2.04 ± 0.2 | -0.541 ± 0.3
73 | AUGAAGCAAUAUUACGACGG | -0.0267 ± 0.085 | 0.216 ± 0.14
74 | AUGAAGCAAUAUUACGAGCG | 0.0672 ± 0.066 | 0.405 ± 0.085
75 | AUGAAGCAAUAUUACGAUCG | 0.0492 ± 0.071 | 0.821 ± 0.11
76 | AUGAAGCAAUAUUACGCACU | 0.079 ± 0.14 | 0.992 ± 0.22
